Test: Formulation stability in different pH solutions (Example 2), DC009 assay recovery by HPLC
Type: physicochemical
Method: DC009 were prepared according to the US Publication Application No. 2016-0083423. The final product was washed repetitively by DCM, THF and ethyl ether several times to increase the purity of the final product. The concentration and purity of DC009 in a solution are determined by HPLC with the following conditions. • Column: alkyl reversed-phase bounded phase column • Mobile Phase (MP): MP A: 0.1% by volume TFA in DI water/MP B: 0.1% by volume TFA in acetonitrile • Detection Wavelength: 214 & 280 nm • Column Temperature: 20-25° C. • Sample Temperature: 10-15° C. • Injection Volume: 10-20 μL • Gradient: MP A and MP B
In Examples 2-6, the stability of each formulation is shown as “assay recovery” or “relative purity level”. Samples at each time point was analyzed by HPLC as described above. For “Assay Recovery”, the % number is calculated by dividing the DC009 concentration at the time point by the DC009 concentration at T=0. For “Relative purity level”, the % number is calculated by (Peak area % of DC009 at Tn/Peak area % of DC009 at T0)*100%. […]
These formulations were stored at 40° C. and 60° C. to evaluate the assay recovery and total impurity. The appearance and stability at each storage condition were recorded at Table 2 and Table 3.

## C[C@H](NC(=O)[C@@H]1CCCN1)C(=O)N[C@@H](CCCCN)C(=O)NCCCC[C@H](NC(=O)[C@@H]1Cc2cc(O)c(O)cc2C(C)(C)N1)C(=O)O [DC009, 3S-6,7-dihydroxy-1,1-dimethyl-1,2,3,4-tetrahydro-isoquinoline-3-acyl-Lys(Pro-Ala-Lys)]
Acidic conditions
  stability of DC009: stable
pH between 4 and 5
  stability of DC009: very stable

Reference: patent US12059448B2, “Pharmaceutical composition comprising thrombolytic peptide-tetrahydroisoquinoline conjugate” (Lumosa Therapeutics Co., LTD, priority 2019, dated 2024)
